The experiment addresses TRIM7^B30.2 (PRY-SPRY domain of human TRIM7, residues 338-511) (human, UniProt Q9C029 338-511). Description: ITC. In general terms: ITC needs no label: the signal is the heat of the interaction.

B1: GN1 peptide (KRKLDTYLQ), Ct-nonapeptide of glycogenin-1 (peptide)
peptide: KRKLDTYLQ
A word on the Kd: it is the equilibrium constant for the complex coming apart. Low readings indicate a tighter complex, high ones a looser complex. As for B1, the affinity, expressed as Kd, was 2.7 µM.

The values above are taken from paper PMC9335266 (Proceedings of the National Academy of Sciences of the …, 2022).
